Reference: patent publication US20260125649A1, “MEDIUM COMPOSITION AND METHOD FOR CULTURING MESENCHYMAL STEM CELLS” (ACADEMIA SINICA, priority 2018, published 2026)
Values joined by “and” are separate entries in the source; they are usually repeats but may differ in a detail not shown here. Equal values may be shown once.

Columns and labels:
[1] = tested on: MSCs; assay: Cell cycle progression by flow cytometry with PI staining; format: cell-based, human; conditions: EpEX, at 18 h; from 6.5% without EpEX
Description: Phospho-EGFR (Tyr845) was detected by Western blotting. […] After treatment, cell cycle progression was investigated by flow cytometry with PI staining. Fraction of cells in each phase (G1, S, G2/M) of the cell cycle was evaluated. Cells that expressed EGFR shRNA or shLuc were treated with EpEX for 18 h. After treatment, cell cycle progression was investigated by flow cytometry with PI staining. Fraction of cells in each phase (G1, S, G2/M) of the cell cycle was evaluated. […] The protein expression of cell cycle regulators (cyclin D1, cyclin D2, cyclin E1) and pluripotency factors (Oct4, Sox2, c-Myc, Lin28) was examined by Western blotting. MSCs expressing EGFR shRNA were stimulated by EpEX. After treatment, the protein expression of cell cycle regulators (cyclin D1, cyclin E1, CDK4 and CDK9) and pluripotency factors (Oct4, in Sox2, c-Myc, and Lin 28) was examined by Western blotting. […] After treatment, the gene expression of pluripotency factors (Oct4, Sox2, c-Myc, Lin28 and EpCAM) was examined by qPCR.
After treatment, the protein levels of total STAT3 and phospho-STAT3 (Tyr705) were examined by Western blotting. […] Cell cycle progression was investigated by flow cytometry with PI staining. Fraction of cells in each phase (G1, S, G2/M) of the cell cycle was evaluated. […] Fraction of cells in each phase (G1, S, G2/M) of the cell cycle was evaluated. […]

[2] = tested on: cyclin A2, cyclin D1, cyclin D2, cyclin D3, cyclin E1, CDK4, CDK9, Oct4, Sox2, c-Myc, Lin28; assay: Western blotting of cell cycle regulators and pluripotency factors in MSCs; format: cell-based, human; conditions: EpEX 3 μg/mL
Description: (§1) The proliferation of MSCs was examined by measuring doubling time. MSCs were treated with EpEX (3 μg/mL) for 24 and 48 h. Cell number was counted and then doubling time was calculated. MSCs were treated with EpEX (3 μg/mL) for the indicated times. After treatment, protein expression of cell cycle regulators (cyclin D1, cyclin D2, cyclin D3, cyclin E1, CDK4 and CDK9) and pluripotency factors (Oct4, Sox2, c-Myc, and Lin28) was examined by Western blotting.
Phospho-EGFR (Tyr845) was detected by Western blotting. […] After treatment, cell cycle progression was investigated by flow cytometry with PI staining. Fraction of cells in each phase (G1, S, G2/M) of the cell cycle was evaluated. Cells that expressed EGFR shRNA or shLuc were treated with EpEX for 18 h. After treatment, cell cycle progression was investigated by flow cytometry with PI staining. Fraction of cells in each phase (G1, S, G2/M) of the cell cycle was evaluated. […]
After treatment, the protein levels of total STAT3 and phospho-STAT3 (Tyr705) were examined by Western blotting. […] Fraction of cells in each phase (G1, S, G2/M) of the cell cycle was evaluated. […] Fraction of cells in each phase (G1, S, G2/M) of the cell cycle was evaluated. […]
The expression of let-7 was detected by qPCR. […] The expression of let-7 was detected by qPCR. […]

[3] = tested on: human bone marrow-derived MSCs; assay: MSC doubling time (cell number counted); format: cell-based
Description: as §1
All experiments with primary human cells were conducted in accordance with relevant guidelines and regulations. Human primary bone marrow mesenchymal stem cells (BMMSCs) were purchased from LONZA and were cultured with Dulbecco's Modified Eagle Media-low glucose (DMEM-LG) medium containing 16.6% FBS, 1 mM L-glutamine (Invitrogen), 100 μg/ml Penicillin/Streptomycin (Gibco). All cells were cultured at 37° C. and 5% CO2. All experiments on primary cells were performed within 10 passages.
We used human bone marrow-derived MSCs to study the effects of EpEX and first investigated whether EpEX promotes cell proliferation of MSCs. […] Next, we examined the effect of EpEX on cell cycle progression by flow cytometry with propidium iodide (PI) staining. […] EpCAM has been reported to enhance cell cycle progression through upregulation of the proto-oncogene c-Myc and cyclin A/E (Munz et al., 2004). […]

B1: EpEX: extracellular domain of human EpCAM, 265 amino acids in length (SEQ ID NO: 2) (protein, listed as Homo sapiens)
chain: MAPPQVLAFGLLLAAATATFAAAQEECVCENYKLAVNCFVNNNRQCQCTSVGAQNTVICSKLAAKCLVMKAEMNGSKLGRRAKPEGALQNNDGLYDPDCDESGLFKAKQCNGTSMCWCVNTAGVRRTDKDTEITCSERVRTYWIIIELKHKAREKPYDSKSLRTALQKEITTRYQLDPKFITSILYENNVITIDLVQNSSQKTQNDVDIADVAYYFEKDVKGESLFHSKKMDLTVNGEQLDLDPGQTLIYYVDEKAPEFSMQGLK
percentage of cells in G2/M phase [1]: 29.3% | protein expression of cell cycle regulators (cyclin A2, D1, D2, D3, E1, CDK4, CDK9) [2]: significantly increased | protein expression of pluripotency markers (Oct4, Sox2, c-Myc, Lin28) [2]: significantly increased | MSC doubling time ([3]; P3, EpEX 3 μg/mL (0 μg/mL: 17.6 ± 0.3 h)): 16.1 ± 0.1 h | MSC doubling time ([3]; P9, EpEX 3 μg/mL (0 μg/mL: 38.2 ± 1.7 h)): 22.5 h and 22.5 ± 0.4 h
